*: point of attachment. Biotin = O=C1N[C@H]2[C@H](CS[C@H]2CCCCC(=O)*)N1

Results on 2 molecules are retold here after US20110243928A1 (published 2011).

Experiment [1] deals with T1, native (PBMC derived) human IL-13 (human, UniProt P35225 35-146, limits assumed).
T1 construct: IL-13 in supernatant of stimulated human CD4+ Th2 cells; also called native human IL-13; Native IL-13
Description: ELISA on Th2 cell supernatant read against a standard curve. (In an ELISA, binding on a coated surface is turned into a signal by an enzyme label.)

Experiment [2] deals with T2, 16mer biotinylated human IL-13 peptide number 24 (human, N-terminal biotin; C-terminal amide).
T2 construct: format Biotin-SGSG-PEPTIDE-amide; also called Peptide 24
T2 peptide: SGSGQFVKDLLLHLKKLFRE
Description: BIAcore analysis 3, antibody over immobilised biotinylated peptide 24. On the procedure:
Completed for the 16mer biotinylated human IL-13 peptide number 24 (identified as the linear binding epitope for parental mAb 6A1, see section 6.7). Note that the absolute KD values obtained for binding to peptide ligands are often quite different to those seen for binding to whole protein targets.
The kinetics analysis was performed on a Biacore 3000 machine using direct binding of antibody to immobilised IL-13 peptide. Briefly, IL-13 biotinylated peptide was captured using a Biacore SA (strepavidin) Biosensor chip. The antibodies were then passed over the sensor surface at various concentrations. The subsequent binding curves were analysed with Biacore analysis software BIAeval 4.1 to determine kinetics. The experiment was carried out using Biacore HBS-EP buffer

The target in experiment [3] is T3, E. coli-expressed recombinant human IL-13 (human, UniProt P35225 35-146).
T3 construct: Untagged E. coli-expressed human IL-13; also called hIL-13; human IL13 (CA)
Nature of the experiment: BIAcore, summary of the analyses.

In experiment [4] the target is T4, E. coli-expressed recombinant human GM-CSF (human, UniProt P04141 18-144). Description: binding ELISA.
The target in experiment [5] is T5, E. coli-expressed recombinant human IL-4 (human, UniProt P05112 25-153).
T5 sequence (looked up): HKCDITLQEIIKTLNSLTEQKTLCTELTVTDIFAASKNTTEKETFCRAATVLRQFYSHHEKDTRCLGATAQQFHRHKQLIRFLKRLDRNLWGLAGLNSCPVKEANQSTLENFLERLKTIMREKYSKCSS
Description: binding ELISA.

The target of experiment [6] is T3, E. coli-expressed recombinant human …. Description: human IL-13 binding sandwich ELISA.
Experiment [7] addresses T4, E. coli-expressed recombinant human …. Nature of the experiment: sandwich ELISA.
The target of experiment [8] is T6, fine mapping peptide 421 (SMILES …).
T6 peptide: Biotin-SGSGKLFREG-NH2
Nature of the experiment: fine mapping peptide ELISA. On the procedure:
(§1) A binding epitope for mAb 6A1 was determined using a peptide set based around […] for binding to human IL-13 and […] for binding to cynomolgus IL-13. Peptides were ordered with 1 amino acid sequentially removed from either the N or C-terminus of these parental peptide sequences (i.e. […] or […]), in order to define the precise linear binding epitope for mAb 6A1.
(§2) An ELISA method was used to detect binding of immobilised biotinylated peptide to the parental mAb 6A1.

The target of experiment [9] is T7, fine mapping peptide 423 (SMILES N=C(N)NCCC[C@H](NC(=O)[C@H](Cc1ccccc1)NC(=O)CNC(=O)[C@H](CO)NC(=O)CNC(=O)[C@H](CO)NC(=O)CCCC[C@@H]1SC[C@@H]2NC(=O)N[C@@H]21)C(=O)N[C@@H](CCC(=O)O)C(=O)NCC(N)=O).
T7 peptide: Biotin-SGSGFREG-NH2
Nature of the experiment: fine mapping peptide ELISA. On the procedure:
as §1, §2

For experiment [10], the target named is T5, E. coli-expressed recombinant human IL-4. Nature of the experiment: human IL-4 binding sandwich ELISA.
Experiment [11] concerns the target T8, E. coli-expressed recombinant det-1 tagged human IL-13 (human, UniProt P35225 35-146).
T8 construct: also called Det-1 tagged human IL-13 (made in-house); not shown: det-1 tag
Description: competition ELISA: inhibition of det-1 tagged human IL-13 binding to human IL-13Rα2-Fc.

The target of experiment [12] is T9, E. coli-expressed recombinant cynomolgus IL-13 (cynomolgus, UniProt Q5I6E4 21-132 (Macaca thibetana entry)).
T9 construct: also called cyno IL13 (CA); cIL-13
T9 chain: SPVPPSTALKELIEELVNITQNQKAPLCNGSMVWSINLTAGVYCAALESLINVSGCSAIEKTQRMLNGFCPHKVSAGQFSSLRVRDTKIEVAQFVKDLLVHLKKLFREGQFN
Nature of the experiment: BIAcore. (In SPR one partner is held on a chip, and binding of the other changes the refractive index at the surface.)

The target in experiment [13] is T8, E. coli-expressed recombinant det-1 …. Nature of the experiment: BIAcore.
For experiment [14], the target named is T3, E. coli-expressed recombinant human …. Description: BIAcore.
Experiment [15] has as its target T8, E. coli-expressed recombinant det-1 …. Nature of the experiment: competition ELISA: inhibition of det-1 tagged human IL-13 binding to human IL-13Rα1-Fc.
The target of experiment [16] is mammalian-expressed (CHO cell) human IL-13 (human, UniProt P35225 35-146, limits assumed). Description: cell-based or functional assay.
Experiment [17] has as its target E. coli-expressed recombinant Q130 human IL-13 (human, UniProt P35225 35-146, limits assumed). Nature of the experiment: cell-based or functional assay.
Experiment [18] deals with T9, E. coli-expressed recombinant …. Nature of the experiment: cell-based or functional assay.
The target of experiment [19] is T3, E. coli-expressed recombinant human …. Nature of the experiment: cell-based or functional assay.
Experiment [20] deals with T10, 16 mer peptide 44 (cynomolgus, N-terminal biotin; C-terminal free acid).
T10 construct: also called 44 (Control)
T10 peptide: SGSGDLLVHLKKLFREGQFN
Description: 16 mer peptide ELISA. The text has this: (§3) Biotinylated 16 mer peptides offset by 4 were synthesised to map the location of the B cell epitope recognised by mAb 6A1 on both human and cynomolgus IL-13. An ELISA method was used to detect binding of immobilised biotinylated peptide to the parental mAb 6A1.

Experiment [21] addresses T11, 16 mer peptide 30 (N-terminal biotin; C-terminal amide).
T11 peptide: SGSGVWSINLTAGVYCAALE
Description: 16 mer peptide ELISA.
Source text: as §3

T3 sequence (P35225 other isoform, or with tags, fused parts or gaps): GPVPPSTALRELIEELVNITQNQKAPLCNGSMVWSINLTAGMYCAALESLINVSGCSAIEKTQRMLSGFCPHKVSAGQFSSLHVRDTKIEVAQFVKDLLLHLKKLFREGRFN
T8 sequence (P35225 other isoform, or with tags, fused parts or gaps): as above
T1 sequence (P35225 other isoform, or with tags, fused parts or gaps limits assumed): as the sequence (P35225 other isoform, or with tags, fused parts or gaps) above
T4 sequence (P04141 18-144 limits assumed): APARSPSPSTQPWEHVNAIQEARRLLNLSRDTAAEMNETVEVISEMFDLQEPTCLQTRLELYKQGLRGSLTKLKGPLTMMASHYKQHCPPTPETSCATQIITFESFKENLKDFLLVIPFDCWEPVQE
Sequence of mammalian-expressed (CHO cell) human IL-13 (P35225 other isoform, or with tags, fused parts or gaps limits assumed): as the sequence (P35225 other isoform, or with tags, fused parts or gaps) above
Sequence of E. coli-expressed recombinant Q130 human IL-13 (P35225 35-146 limits assumed): as the sequence (P35225 other isoform, or with tags, fused parts or gaps) above, with R110Q counted along it

B1: L1+A1 (antibody, human IgG1, kappa, V domains shown)
VH: QVQLVQSGAEVKKPGSSVKVSCKASGFYIKDTYMHWVRQAPGQGLEWMGTIDPANGNTKYVPKFQGRVTITADESTSTAYMELSSLRSEDTAVYYCARSIYDDYHYDDYYAMDYWGQGTLVTVSS
VL: DIVMTQSPLSLPVTPGEPASISCRSSQNIVHINGNTYLEWYLQKPGQSPRLLIYKISDRFSGVPDRFSGSGSGTDFTLKISRVEADDVGIYYCFQGSHVPWTFGQGTKLEIKR
notes: Humanised 6A1, VH construct A1 and VL construct L1, human gamma1 wild type / kappa constant regions; also called A1L1; humanised anti-IL-13 mAb L1+A1
In general, Kd refers to the equilibrium constant for the complex coming apart. What is called koff is the rate constant with which the complex falls apart. The term kon denotes the rate constant with which the complex forms. One may read the EC50 as the concentration at which the effect is half-maximal. As for B1, the “Native IL-13 (ng/ml) detected in Th2 supernatant” value in experiment [1] stood at 25.1 ng/mL. The “fold reduction in affinity against chimaeric 6A1” value in experiment [2] was around 3 fold. Moreover, in experiment [3], the Kd was around 0.168 nM, the off-rate (koff) is 8.22e-05 s⁻¹ and the kon was around 600000 M⁻¹ s⁻¹. Further, the binding result in experiment [4] is on record as “no binding (tested: 30 µg/ml)”. Further, the binding result in [5] is “no binding (tested: 30 µg/ml)”. Also, the EC50 in experiment [6] came to 0.018 µg/mL.

B2: monoclonal antibody 6A1 (antibody, IgG1, V domains shown)
VH: EIQLQQSVAELVRPGASVRLSCTASGFYIKDTYMHWVIQRPEQGLEWIGTIDPANGNTKYVPKFQGKATITADTSSNTAYLRLSSLTSEDTAIYYCARSIYDDYHYDDYYAMDYWGQGTSVTVSS
VL: DVLMTQTPLSLPVSLGDQASISCRSSQNIVHINGNTYLEWYLQKPGQSPKLLIYKISDRFSGVPDRFSGSGSGTDFTLKISRVEAEDLGVYYCFQGSHVPWTFGGGTKLEIK
notes: also called 6A1 parental mAb; parental mouse mAb 6A1
In general, IC50 refers to the point on the concentration scale where inhibition reaches its midpoint. Regarding B2, the “Native IL-13 (ng/ml) detected in Th2 supernatant” value in [1] amounted to 22.5 ng/mL. For the same molecule, the binding result in experiment [7] and in experiment [10] was “no binding” in each case. For the same molecule, the “absorbance at 490 nm” value in [8] is 0.059 A490; in experiment [9], 0.052 A490; in [20] it was 2.23 A490; in experiment [21] it was 0.062 A490. Further, the IC50 in [11] is 0.056 µg/mL; in [15], 0.165 µg/mL. Further, the Kd came out at 0.0612 nM in experiment [12], 0.032 nM in experiment [13] and 0.27 nM in experiment [14]. In addition, the koff in experiment [12] stood at 5.6e-05 s⁻¹; in experiment [13], 7.2e-05 s⁻¹; in experiment [14] it was 0.000184 s⁻¹. Further, the kon came out at 914000 M⁻¹ s⁻¹ in experiment [12], 2.25e+06 M⁻¹ s⁻¹ in experiment [13] and 682000 M⁻¹ s⁻¹ in experiment [14]. In addition, the “ND50, TF-1 cell proliferation bioassay” value in experiment [16] amounted to 0.037 µg/mL; in [17] it was 0.11 µg/mL; in experiment [18], 0.04 µg/mL; in experiment [19], 0.0783 µg/mL. The EC50 in experiment [6] amounted to 0.049 µg/mL.
